Laboratory results from patent publication US20230192888A1.

Legend:
[1] = biological target: human recombinant MMP-1 (human) (UniProt P03956); test: sandwich ELISA; capture MAB901, detection 1-8A12-HRP; MMP-1 5 ng/ml
[2] = biological target: human recombinant MMP-1 (human) (UniProt P03956); test: sandwich ELISA; capture MAB901, detection 1-8A12-HRP; MMP-1 10 ng/ml
[3] = biological target: human recombinant MMP-1 (human) (UniProt P03956); test: sandwich ELISA; capture MAB901, detection 1-8A12-HRP; MMP-1 2.5 ng/ml
[4] = biological target: human recombinant MMP-1 (human) (UniProt P03956); test: sandwich ELISA; capture MAB901, detection 1-8A12-HRP; MMP-1 1.25 ng/ml
[5] = biological target: human recombinant MMP-1 (human) (UniProt P03956); test: sandwich ELISA; capture MAB901, detection 1-8A12-HRP; MMP-1 0.156 ng/ml
[6] = biological target: human recombinant MMP-1 (human) (UniProt P03956); test: sandwich ELISA; capture MAB901, detection 1-8A12-HRP; MMP-1 0.313 ng/ml
[7] = biological target: human recombinant MMP-1 (human) (UniProt P03956); test: sandwich ELISA; capture MAB901, detection 1-8A12-HRP; MMP-1 0.625 ng/ml
[8] = biological target: endogenous MMP-1 in clinical saliva samples (human) (UniProt P03956); test: sandwich ELISA; capture MAB901, detection 1-8A12-HRP; saliva sample 8 (MMP-1 0 pg/ml)
[9] = biological target: endogenous MMP-1 in clinical saliva samples (human) (UniProt P03956); test: sandwich ELISA; capture MAB901, detection 1-8A12-HRP; saliva sample 4 (MMP-1 6.4 pg/ml)
[10] = biological target: endogenous MMP-1 in clinical saliva samples (human) (UniProt P03956); test: sandwich ELISA; capture MAB901, detection 1-8A12-HRP; saliva sample 6 (MMP-1 27.1 pg/ml)
[11] = biological target: endogenous MMP-1 in clinical saliva samples (human) (UniProt P03956); test: sandwich ELISA; capture MAB901, detection 1-8A12-HRP; saliva sample 5 (MMP-1 285.6 pg/ml)
[12] = biological target: endogenous MMP-1 in clinical saliva samples (human) (UniProt P03956); test: sandwich ELISA; capture MAB901, detection 1-8A12-HRP; saliva sample 7 (MMP-1 120.6 pg/ml)
[13] = biological target: endogenous MMP-1 in clinical saliva samples (human) (UniProt P03956); test: sandwich ELISA; capture MAB901, detection 1-8A12-HRP; saliva sample 2 (MMP-1 5041.1 pg/ml)
[14] = biological target: endogenous MMP-1 in clinical saliva samples (human) (UniProt P03956); test: sandwich ELISA; capture MAB901, detection 1-8A12-HRP; saliva sample 3 (MMP-1 1503.2 pg/ml)
[15] = biological target: endogenous MMP-1 in clinical saliva samples (human) (UniProt P03956); test: sandwich ELISA; capture MAB901, detection 1-8A12-HRP; saliva sample 1 (MMP-1 14821.9 pg/ml)

In the case of MAB901 (antibody), the OD value [1] was 1.19 OD, the OD value [2] was 2.34 OD and the OD value [3] was 0.544 OD. It also gave an OD value [4] of 0.258 OD, an OD value [5] of 0.027 OD and an OD value [6] of 0.056 OD. It also gave an OD value [7] of 0.119 OD, an OD value [8] of -0.01 OD and an OD value [9] of -0.019 OD. For the same substance, the OD value [10] was 0.003 OD, the OD value [11] was 0.045 OD and the OD value [12] was 0.006 OD. For the same substance, the OD value [13] was 0.883 OD, the OD value [14] was 0.11 OD and the OD value [15] was 2.69 OD.
